Data published in the supplement of paper PMC10126150.
± gives the standard deviation of the averaged measurements.

Tested on: ATP
Assay: switch fluorescence ratio, 500 uM ATP over buffer (Cy3 cluster intensity, sum of 5 cycles each) (fold (ratio)); higher = stronger signal-on switching upon ATP binding; sequences stand for … in TCGTCGGCAGCGTCAGATGTGTATAAGAGACAGTTTTTTTTTTTTTTTTTTTTTTTTT…TC
Settings: aptamer strand: ATP DNA aptamer (quencher-CACCTGGGGGAGTATTGCGGAGGAAGG + anchor), 100 nM annealed; ATP concentration: 500 uM
In short: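 Switching-strand clusters labelled with Cy3 on a modified Illumina MiSeq flow-cell were annealed to 100 nM quencher-labelled ATP aptamer, imaged in selection buffer, and re-imaged after 15 min with 500 uM ATP at 22 °C. This was done over five cycles with NaOH stripping and re-annealing in between. The fluorescence ratio is summed target-cycle over summed buffer-cycle Cy3 intensity per cluster, averaged per switch-domain sequence, excluding clusters outside 100-1000 RFU.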
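Also: ATP exposure 15 min at 22 °C before imaging.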

| Sequence | switch fluorescence ratio |
| --- | --- |
| CAGATTGTGT | 1 ± 0.039 |
| CAGCAAGGGA | 1.12 ± 0.025 |
| CAGCACAGGG | 1.18 ± 0.017 |
| CAGCACGATA | 1.1615 ± 0.00014 |
| CAGCAGCTGG | 1.05 ± 0.034 |
| CAGCATAGAT | 1.08 ± 0.023 |
| CAGCCCTATA | 1.04 ± 0.047 |
| CAGCCGGATG | 1.02 ± 0.028 |
| CAGCCTGGGC | 0.984 ± 0.016 |
| CAGCGCATTA | 2.01 ± 0.11 |
| CAGCGGGACG | 1.02 ± 0.035 |
| CAGCGGGTCT | 1.04 ± 0.054 |
| CAGCGTATTG | 1.04 ± 0.037 |
| CAGCTCGGTC | 0.9687 ± 0.0082 |
| CAGCTGCTGC | 1.014 ± 0.0051 |
| CAGCTGGGAG | 1.03 ± 0.011 |
| CAGCTTCCCC | 1.29 ± 0.42 |
| CAGGAAAATT | 1 ± 0.032 |
| CAGGAACTTA | 0.9843 ± 0.0052 |
| CAGGACACCT | 1.17 ± 0.034 |
| CAGGACACTA | 1.03 ± 0.026 |
| CAGGACGGGT | 1.02 ± 0.03 |
| CAGGACTGCA | 1.028 ± 0.0039 |

| Sequence | switch fluorescence ratio |
| --- | --- |
| CAGGACTGGG | 1.01 ± 0.0056 |
| CAGGATAGGC | 1.003 ± 0.0044 |
| CAGGATGAAT | 0.999 ± 0.033 |
| CAGGATGTGC | 0.992 ± 0.032 |
| CAGGCAGATG | 1.01 ± 0.015 |
| CAGGCAGGGT | 0.969 ± 0.035 |
| CAGGCAGTAA | 1.18 ± 0.073 |
| CAGGCATTAT | 1.08 ± 0.043 |
| CAGGCCGGAG | 1.01 ± 0.022 |
| CAGGCGACGG | 1.01 ± 0.033 |
| CAGGCGGCG | 0.991 ± 0.017 |
| CAGGCTATTT | 1.03 ± 0.049 |
| CAGGCTGACC | 0.974 ± 0.025 |
| CAGGCTGGGC | 0.9862 ± 0.008 |
| CAGGCTTTTA | 0.983 ± 0.028 |
| CAGGGAATAG | 1.07 ± 0.049 |
| CAGGGACCTG | 1.03 ± 0.032 |
| CAGGGACGGC | 1.02 ± 0.012 |
| CAGGGACTGG | 1 ± 0.072 |
| CAGGGAGAGG | 1 ± 0.011 |
| CAGGGATAGT | 1.26 ± 0.32 |
| CAGGGCAAGG | 1.12 ± 0.08 |
| CAGGGGGCAG | 1.05 ± 0.07 |

| Sequence | switch fluorescence ratio |
| --- | --- |
| CAGGGGGCGT | 0.984 ± 0.0037 |
| CAGGGGGCTA | 1.01 ± 0.067 |
| CAGGGGGGGA | 1.01 ± 0.044 |
| CAGGGGTATA | 1.02 ± 0.024 |
| CAGGGGTGGG | 0.999 ± 0.058 |
| CAGGGTGGTA | 0.9934 ± 0.0048 |
| CAGGGTGGTC | 1.04 ± 0.0048 |
| CAGGGTGTGG | 0.976 ± 0.014 |
| CAGGGTGTTG | 0.964 ± 0.041 |
| CAGGTAAGCG | 0.969 ± 0.051 |
| CAGGTATGT | 0.991 ± 0.015 |
| CAGGTCCGGG | 1.02 ± 0.018 |
| CAGGTCCTTT | 1.01 ± 0.025 |
| CAGGTCGGCT | 0.995 ± 0.052 |
| CAGGTGAGAC | 1.31 ± 0.04 |
| CAGGTTGGAG | 1.15 ± 0.24 |
| CAGGTTTAAA | 0.992 ± 0.034 |
| CAGGTTTAAG | 0.975 ± 0.055 |
| CAGTAAAAGT | 0.983 ± 0.031 |
| CAGTAAGTCT | 1.05 ± 0.076 |
| CAGTAATGTT | 0.994 ± 0.033 |
| CAGTAATTGC | 1.05 ± 0.023 |
| CAGTAATTGT | 0.9856 ± 0.0029 |

| Sequence | switch fluorescence ratio |
| --- | --- |
| CAGTACCTAA | 1.039 ± 0.0019 |
| CAGTACGGTT | 1 ± 0.037 |
| CAGTACTGGT | 0.99384 ± 0.00024 |
| CAGTAGAATA | 1.02 ± 0.022 |
| CAGTAGTTAT | 0.996 ± 0.011 |
| CAGTATCCTT | 1.027 ± 0.003 |
| CAGTATCGGA | 0.9814 ± 0.008 |
| CAGTATGGTA | 1 ± 0.012 |
| CAGTATGTAG | 0.957 ± 0.02 |
| CAGTATGTCC | 0.966 ± 0.035 |
| CAGTATTAGA | 1.003 ± 0.0037 |
| CAGTCCATTA | 1.011 ± 0.0093 |
| CAGTCCTGTA | 1 ± 0.042 |
| CAGTCGACGG | 0.993 ± 0.011 |
| CAGTCGCGTG | 0.993 ± 0.018 |
| CAGTGAGACT | 1.02 ± 0.037 |
| CAGTGCAGCG | 1.06 ± 0.057 |
| CAGTGCGCTT | 1.1 ± 0.085 |
| CAGTGGACCG | 1.004 ± 0.0011 |
| CAGTGGACGG | 0.971 ± 0.042 |
| CAGTGGATCG | 1.008 ± 0.0011 |
| CAGTGGCGTA | 1.01 ± 0.011 |
| CAGTGTCTGA | 1.05 ± 0.037 |

| Sequence | switch fluorescence ratio |
| --- | --- |
| CAGTGTGTGC | 1.03 ± 0.015 |
| CAGTGTTATC | 1.01 ± 0.013 |
| CAGTGTTCCG | 0.977 ± 0.042 |
| CAGTTACGAT | 1.03 ± 0.032 |
| CAGTTAGTAC | 1.1 ± 0.018 |
| CAGTTATAAT | 1.04 ± 0.016 |
| CAGTTGGGTT | 1.02 ± 0.041 |
| CAGTTGTGGT | 0.998 ± 0.011 |
| CAGTTTAAGG | 1.01 ± 0.024 |
| CAGTTTGAGT | 1.006 ± 0.0014 |
| CAGTTTTGGC | 1.01 ± 0.025 |
| CATAAAATCG | 0.9666 ± 0.0091 |
| CATAAAGGAT | 0.97 ± 0.011 |
| CATAACTAAA | 1 ± 0.012 |
| CATAACTATT | 0.989 ± 0.015 |
| CATAAGCCTC | 1.03 ± 0.056 |
| CATAAGGCTC | 1 ± 0.02 |
| CATAATATTA | 0.9698 ± 0.0032 |
| CATAATCGCA | 1.04 ± 0.021 |
| CATACACCTT | 1.21 ± 0.032 |
| CATACCGGGG | 1.025 ± 0.0049 |
| CATACTTCAT | 1.049 ± 0.0063 |
| CATAGAAAAT | 0.965 ± 0.0069 |

| Sequence | switch fluorescence ratio |
| --- | --- |
| CATAGAAGCT | 0.976 ± 0.048 |
| CATAGAATTT | 0.978 ± 0.084 |
| CATAGATCTG | 1.01 ± 0.028 |
| CATAGATGTC | 0.989 ± 0.063 |
| CATAGCCTAA | 1.008 ± 0.0031 |
| CATAGGAGGG | 0.977 ± 0.056 |
| CATAGGATTG | 1.0163 ± 0.00094 |
| CATAGGGTTC | 0.9954 ± 0.0089 |
| CATAGTTCTG | 0.981 ± 0.028 |
| CATATCCAGG | 1.34 ± 0.017 |
| CATATCCCCT | 1.03 ± 0.045 |
| CATATCGCCC | 1.06 ± 0.039 |
| CATATGGGGC | 1.048 ± 0.00092 |
| CATATGTTGA | 0.975 ± 0.026 |
| CATATTATGG | 0.981 ± 0.036 |
| CATATTTTAG | 0.989 ± 0.032 |
| CATCAATAAT | 1.045 ± 0.0083 |
| CATCGACTGG | 0.965 ± 0.017 |
| CATCGAGAGG | 1.01 ± 0.019 |
| CATCGAGTGT | 1.05 ± 0.029 |
| CATCGCAAAG | 4.33 ± 0.46 |
| CATCGCTATG | 1.096 ± 0.0097 |
| CATCGGATTT | 0.972 ± 0.01 |

| Sequence | switch fluorescence ratio |
| --- | --- |
| CATCGGGTGG | 1.03 ± 0.09 |
| CATCGGTGCG | 1.08 ± 0.19 |
| CATCGGTGGG | 0.97 ± 0.016 |
| CATCGGTGTG | 0.958 ± 0.047 |
| CATCGTCACG | 1.007 ± 0.0025 |
| CATCGTGGTT | 0.9778 ± 0.0043 |
| CATCTCTAGC | 0.993 ± 0.012 |
| CATCTCTGGA | 0.9986 ± 0.0016 |
| CATCTGCGGG | 1.16 ± 0.17 |
| CATCTTAGTG | 1.02 ± 0.057 |
| CATCTTGGAA | 1.01 ± 0.015 |
| CATGAAAAGT | 0.978 ± 0.047 |
| CATGAAGCTG | 1.02 ± 0.018 |
| CATGACCGAA | 1.014 ± 0.0039 |
| CATGATAGCG | 0.9981 ± 0.0019 |
| CATGATATGG | 0.969 ± 0.02 |
| CATGCATATT | 1.01 ± 0.044 |
| CATGCGAGGG | 1 ± 0.035 |
| CATGGAATCG | 1.02 ± 0.035 |
